Experimental findings from patent US20170016905A1 (VAR2 PHARMACEUTICALS, published 2017) are described below.

In the test the target is T1, CSPG (bovine) (D8428, Sigma) (bovine, UniProt P21793 31-360, carries chondroitin sulfate A (CSA) glycosaminoglycan chain(s); the filing attributes the binding of VAR2CSA to this glycan).
T1 construct: also called chondroitin sulfate proteoglycan; CSA proteoglycan
The experiment in a line: quartz crystal microbalance (Attana A100); legend: N/A = no KD value could be determined, due to a lack of binding to CSA.

T1 sequence (P21793 31-360): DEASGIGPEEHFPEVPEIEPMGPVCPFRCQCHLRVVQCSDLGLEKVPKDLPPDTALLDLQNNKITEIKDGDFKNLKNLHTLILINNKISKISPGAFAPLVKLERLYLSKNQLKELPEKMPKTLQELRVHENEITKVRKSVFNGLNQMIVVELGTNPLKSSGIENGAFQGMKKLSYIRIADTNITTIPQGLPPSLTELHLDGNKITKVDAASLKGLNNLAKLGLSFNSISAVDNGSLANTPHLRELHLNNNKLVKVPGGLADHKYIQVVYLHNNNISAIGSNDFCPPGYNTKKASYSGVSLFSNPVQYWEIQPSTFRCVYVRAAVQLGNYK

B1: DBL1X-DBL2Xa (FCR3, Baculo) (other)
chain: HSDSGKYDPCEKKLPPYDDNDQWKCQQNSSDGSGKPENICVPPRRERLCTYNLENLKFDKIRDNNAFLADVLLTARNEGEKIVQNHPDTNSSNVCNALERSFADLADIIRGTDQWKGTNSNLEKNLKQMFAKIRENDKVLQDKYPKDQKYTKLREAWWNANRQKVWEVITCGARSNDLLIKRGWRTSGKSDRKKNFELCRKCGHYEKEVPTKLDYVPQFLRWLTEWIEDFYREKQNLIDDMERHREECTREDHKSKEGTSYCSTCKDKCKKYCECVKKWKTEWENQENKYKDLYEQNKNKTSQKNTSRYDDYVKDFFEKLEANYSSLENYIKGDPYFAEYATKLSFILNPSDANNPSGETANHNDEACNCNESGISSVGQAQTSGPSSNKTCITHSSIKTNKKKECKDVKLGVRENDKDLKICVIEDTSLSGVDNCCCQDLLGILQENCSDNKRGSSSNDSCDNKNQDECQKKLEKVFASLTNGYKCDKCKSGTSRSKKKWIWKKSSGNEEGLQEEYANTIGLPPRTQSLYLGNLPKLENVCEDVKDINFDTKEKFLAGCLIVSFHEGKNLKKRYPQNKNSGNKENLCKALEYSFADYGDLIKGTSIWDNEYTKDLELNLQNNFGKLFGKYIKKNNTAEQDTSYSSLDELRESWWNTNKKYIWTAMKHGAEMNITTCNADGSVTGSGSSCDDIPTIDLIPQYLRFLQEWVENFCEQRQAKVKDVITNCKSCKESGNKCKTECKTKCKDECEKYKKFIEACGTAGGGIGTAGSPWSKRWDQIYKRYSKHIEDAKRNRKAGTKNCGTSSTTNAA
notes: Range derived by me from the FCR3 DBL1X forward primer and the FCR3 DBL2Xa reverse primer (STTNAA), which ends 93 residues before the DBL2Xb border; not shown: V5 and His tag at the C-terminal (modified pAcGP67-A)
As for B1, the binding result is reported as “no binding”.

B2: ID1-DBL2Xa (3D7, Baculo) (other)
chain: LSFILNSSDANNPSEKIQKNNDEVCNCNESGIASVEQEQISDPSSNKTCITHSSIKANKKKVCKHVKLGVRENDKDLRVCVIEHTSLSGVENCCCQDFLRILQENCSDNKSGSSSNGSCNNKNQEACEKNLEKVLASLTNCYKCDKCKSEQSKKNNKNWIWKKSSGKEGGLQKEYANTIGLPPRTQSLCLVVCLDEKGKKTQELKNIRTNSELLKEWIIAAFHEGKNLKPSHEKKNDDNGKKLCKALEYSFADYGDLIKGTSIWDNEYTKDLELNLQKIFGKLFRKYIKKNNTAEQDTSYSSLDELRESWWNTNKKYIWLAMKHGAGMNSTTCCGDGSVTGSGSSCDDIPTIDLIPQYLRFLQEWVEHFCKQRQEKVKPVIENCKSCKESGGTCNGECKTECKNKCEVYKKFIEDCKGGDGTAGSSWVKRWDQIYKRYSKYIEDAKRNRKAGTKNCGPSSTTNAA
notes: not shown: V5 and His tag at the C-terminal (modified pAcGP67-A)
In the case of B2, the binding result is listed as “no binding”.
